Test results published in the supplement of paper PMC12764529.
± gives the half width of the 95% confidence interval.

Tests used:
[1] = folding stability dG unfold from trypsin proteolysis; higher = more stable
Summary of the method: (§1)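 Digests were run with trypsin and chymotrypsin at 11 concentrations in threefold dilutions, plus a no-protease condition, on designed mini-proteins in a PA-tagged cDNA display construct. The mini-proteins were under 80 residues, had no cysteine, and were kept only when AlphaFold2 dimer inter-PAE was above 15. After sequencing, Bayesian fitting of the counts gave K50, from which unfolding free energy was derived against a sequence-predicted unfolded-state K50 and a shared folded-state K50, per protease or combined.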

[2] = folding stability dG unfold from chymotrypsin proteolysis; higher = more stable
Summary of the method: as §1

[3] = folding stability dG unfold (combined trypsin and chymotrypsin); higher = more stable
Summary of the method: as §1

| Sequence | folding stability dG unfold [1] [kcal/mol] | folding stability dG unfold [2] [kcal/mol] | folding stability dG unfold [3] [kcal/mol] |
| --- | --- | --- | --- |
| SAGGSATLTLPEDVVKEVFTAKVGDKEYRPVVFRSPDDEWVLVLVLRRDPNGNTSAVAALLPKDAVSAGGSA [r15_986_TrMRF] | 1.49 ± 0.047 | 1.8 ± 0.16 | 1.64 ± 0.13 |
| SAGGKTIEVEIVVPPDMTPEEVAARLAAALPPGAKIRVEEVREVTGPDGRKYRIFKVTIYDEKTGEPLSAGG [r13_12_TrROS_Hall] | 3.61 ± 0.14 | 2.99 ± 0.072 | 3.12 ± 0.16 |
| SAGGSAGGSAGGMTKLEPLATEPNPLKVLTKVTTTDPVTGKPKTTIVETEIPVPESELGSAGGSAGGSAGGS [r10_846_JUSTAS] | 0.0416 ± 0.06 | -0.0657 ± 0.13 | 0.0083 ± 0.12 |
| SAGGSAGGSIWIPPNHSVEEFAKEIQDKGNAEVKRDEPGWYKIKSKNNKPKKRIRFQANPEQFSAGGSAGGS [r20_236_TrROS] | -0.163 ± 0.5 | 0.24 ± 0.53 | -0.046 ± 0.43 |
| SASITIPVDELKDFAEHFPGFNVGVNPETGMFQIFFPENGWMINIDIEVDPDDPDTIEIDIEIYPMPPNSAG [r14_604_TrROS] | 1.78 ± 0.13 | 2.96 ± 0.15 | 2.57 ± 0.37 |
| SAGGEEEAVEKPFYQLPEKKPLKTVPMSREEALALARENPDLGILYAEEDGKLWKVDAETGTIEPLGSAGGS [r16_214_JUSTAS] | 1.23 ± 0.043 | 1.58 ± 0.11 | 1.46 ± 0.14 |
| SKIRIEWPDETQEIKIPKDASVAIDPGNGHIAIHGPDGEALGFPLGPNWKIEPDDDEIEITIPPPKPEDPSA [r9_653_TrROS] | -0.118 ± 0.15 | 0.141 ± 0.056 | 0.158 ± 0.2 |
| SATFTLPDGREVEVVSVEYDPETNTVTVLVRDRETGELYVFTFERLPDGEWRIVSRERVRVEPGETVLVSAG [r14_13_TrROS_Hall] | 2.02 ± 0.025 | 3.235 ± 0.022 | 2.94 ± 0.07 |
| SAGGSAGGSAGPKPLATITLPYPDNASVTITVTPNGVLIDPDPNITNPEVEKAVADALTDSAGGSAGGSAGG [r11_372_TrMRF] | 1.55 ± 0.11 | 1.07 ± 0.12 | 1.41 ± 0.099 |
| SAGGSAGGMKVTTEGNAAGTNTVTVSYPDGSSVTRTLAPDDVVEVPVGGEVVLTVTVTANPDLPSAGGSAGG [r6_583_JUSTAS] | -0.0728 ± 0.1 | 0.0101 ± 0.061 | -0.0541 ± 0.12 |
| SAGGSAGGSAGGDWKMIEFYIPIEPDEPITIEIPDGVRIQIWRVDGYYKVTIMIPLEDISAGGSAGGSAGGS [r10_355_TrROS] | 2.42 ± 0.14 | 3.71 ± 0.083 | 3.17 ± 0.18 |
| SAGGSANVQVEQTGDGKIKIEFPWYGAEITLNPKKGDIEVEVLPNYKNGQPPPEDEVKNLAKEILDSAGGSA [r15_735_TrROS] | -0.0532 ± 0.092 | 0.971 ± 0.047 | 0.739 ± 0.13 |
| SAGGSAGGSAGSMSVTLSTTVEVTVEPLPDYTIVTVTTTTTFPDGSTTTTVTTTPVPPDLGSAGGSAGGSAG [r3_330_JUSTAS] | 0.957 ± 0.24 | 1.8 ± 0.15 | 1.68 ± 0.22 |
| GKAEVVRVEYDPETGALRVVLRREGADVVLEVDPETGVARVYFPADPRVLEFEFDTLEEAVDAAVALLEAGS [r1_177_TrMRF] | 3.59 ± 0.17 | 4.66 ± 0.14 | 4.36 ± 0.14 |
| SAMTVEIEFPPELEVEELVEKLKEAFPGEEIEVEAERDPVEPRLRIRVTVDDPELAEEVEKKLRELVEESAG [r14_443_TrMRF] | 3.34 ± 0.15 | 2.21 ± 0.1 | 3 ± 0.12 |
| SAGGSAGGSAGMEITRDKTPDGVWTVTITVPRPDGPSITVTVTGSPDGDFAPEKIAAVLASAGGSAGGSAGG [r11_759_JUSTAS] | 1.15 ± 0.038 | 0.078 ± 0.19 | 0.819 ± 0.13 |
| SAGGSAGGMLVFVVKKIKPGMSDEQKKALEKLVKPGDVIELSPEEIERLAKLPWIQEIKVYPLPSAGGSAGG [r6_381_TrROS_Hall] | 0.641 ± 0.12 | 0.361 ± 0.34 | 0.548 ± 0.2 |
| SAGGSAGGSSVSVSFPSSVTKVEPELNDPNLTTFFESPGLVIKVTVVPGTGKVIIEKKPLSELSAGGSAGGS [r12_858_JUSTAS] | 0.858 ± 0.023 | -0.663 ± 0.13 | 0.342 ± 0.053 |
| SAGGSAGGSAGAYRVEVNVELTPEAREAFLKNPELPADAEIPVVVSGRVEPVPLGPEGVLSAGGSAGGSAGG [r17_194_TrMRF] | -0.58 ± 0.2 | 0.0793 ± 0.14 | -0.143 ± 0.12 |
| SAGKISSIDISPFKLPDGSYPYLLRVSFPDLGTEVDFIFPAKPSDAINFAKELRKSLPNIPLTFSNISSAGG [r19_317_TrMRF] | 1.94 ± 0.05 | 1.89 ± 0.11 | 1.87 ± 0.11 |
| SKKVTLPIYFPETGEVVTIDLDELAKALGVDPDKLTLTVVSSGKGRVYRIEVFKDGIRIEEIGDVPPELLSA [r9_819_TrMRF] | 2.2 ± 0.03 | 2.848 ± 0.017 | 2.63 ± 0.05 |

| Sequence | folding stability dG unfold [1] [kcal/mol] | folding stability dG unfold [2] [kcal/mol] | folding stability dG unfold [3] [kcal/mol] |
| --- | --- | --- | --- |
| SAGGSAGGSAGGKVEIYENPSTPYLVVVVYNPETGEKTVVLFKPDNPELAEKVAKELASSAGGSAGGSAGGS [r10_1117_TrMRF] | 0.711 ± 0.077 | 1.81 ± 0.16 | 1.38 ± 0.11 |
| SAGGSAGGMTITLTLPDGTVITITVSRPGSPTTVVSVKAERPARGGTDIPEEVAKELAEKILKESAGGSAGG [r6_235_JUSTAS] | 1.51 ± 0.037 | 2.96 ± 0.11 | 2.55 ± 0.076 |
| SAGGSAMKVYKIKLEFENEETGKRVEIEAEVVEVDGELYLVMKAKVVDEETGEEKEIEIVIKLPKESAGGSA [r15_960_TrROS_Hall] | 2.48 ± 0.21 | 2.27 ± 0.4 | 2.31 ± 0.21 |
| SAGGSAKLTAEEIKKLPPNARIYFDKETGRVFIEVDGKLVVIEIDKETKEVKVVKVFPSKEALEKASAGGSA [r15_6_TrROS_Hall] | 1.57 ± 0.054 | 1.86 ± 0.1 | 1.82 ± 0.12 |
| SAGGSAGGSMVTPDGRLVIEIEVSEEDIEKLKEEARKKLGVKEVKVEVEEKDGKLKVRIVVEPSAGGSAGGS [r12_929_TrROS_Hall] | 0.743 ± 0.092 | 2.19 ± 0.15 | 1.77 ± 0.29 |
| SAMKITIEEVEVKEGDTVTIRIDASEEELENFLKELAEKLGAEVVEVEVKKNENGSLEVTVKVKEVKKPSAG [r14_655_TrROS_Hall] | 1.2 ± 0.11 | 0.476 ± 0.13 | 1.04 ± 0.17 |
| SAGGSAGGSAMPLEKVIKNLTSSGSVESLKEKLAKEYGVEKVEVTKDPNSDTYSAKVFLKKPSAGGSAGGSA [r18_275_JUSTAS] | -0.147 ± 0.18 | -0.0178 ± 0.31 | 0.131 ± 0.15 |
| SAGGSAGGSAGGGSTTTTTETYPENGLIFTTTTTVFDDGSLSVTTTTSPLPLPPSPFIATSAGGSAGGSAGG [r7_103_JUSTAS] | 1.29 ± 0.043 | 0.394 ± 0.18 | 1.05 ± 0.18 |
| SAGGSAGGSAGKPTLKLVLKFDSPEQAKAAAEALAKAGYKVKVELKEYPDGLYLVVTVEPSAGGSAGGSAGG [r11_677_TrROS_Hall] | 3.29 ± 0.12 | 4.41 ± 0.13 | 4.2 ± 0.2 |
| SLIPIRPLATSPSGDLLIEVPAEEDLVEEIKKYLKEKFPGYTPVEVKPVESPPLYLVLFSHPSGKKVWLGSA [r9_1164_JUSTAS] | 0.967 ± 0.03 | 1.35 ± 0.082 | 1.24 ± 0.07 |
| SAGGYYIEFRNPNNGNTVTIPPELIEAIKSGDPDKLKKLPPWFRDALDNIDRVEIQPPPPVPPVPPGKSAGG [r13_233_TrROS] | 0.68 ± 0.051 | 0.958 ± 0.041 | 0.887 ± 0.053 |
| SAGGSAGGSAGLIVTHPDGGVTTLRLTLTFTFEGPVGPPKTVTFEFTLTVAPNGTEVTLESAGGSAGGSAGG [r11_271_TrMRF] | 3.34 ± 0.16 | 5.11 ± 0.11 | 4.72 ± 0.27 |
| SAGGSAAEPVVLVFKTPESEALITVPPAFVQRVTVDPGGTVRRITVDLPDGTRTFLITDDSIFVDDSAGGSA [r15_598_TrMRF] | 0.753 ± 0.048 | 0.581 ± 0.12 | 0.709 ± 0.068 |
| SAGGSAGGSAMIEISSYTLPNGELVVEVTIPDPNSDKTTTLRGKYSSLEEAREEAEKLYLQSAGGSAGGSAG [r3_174_JUSTAS] | 1.52 ± 0.051 | 1.84 ± 0.12 | 1.69 ± 0.12 |
| SAGGSAGGKYQEFEYMIMFPDGGMFRVKIEYSPNPGQVKIKIEFPGGEREITIPPGAPITIMPMSAGGSAGG [r6_927_TrROS] | 3.17 ± 0.23 | 2.41 ± 0.054 | 2.74 ± 0.23 |
| SAGGLEELAKEIADDLQKRNPDMNIEVQVEVHEYKIPPGQKMRHPDGEEKEVPPGQKVYMFTIRVTPSAGGS [r16_357_TrROS] | 0.758 ± 0.11 | 1.26 ± 0.27 | 1.17 ± 0.21 |
| SAGGSAGGSMKIKVEVEMEKVKDPKKKGEYIYKMKIKKVEIELSEEEKEKLKELAEKLGIEVESAGGSAGGS [r12_249_TrROS_Hall] | 1.42 ± 0.066 | 2.35 ± 0.074 | 2.08 ± 0.17 |
| SAGKKKFITIVIPIEKKEKLKKAVEELKKKFNAKELAVIPNPEKNEIIEVVVKETKDAIIKIVIIAKESAGG [r19_262_TrMRF] | 1.68 ± 0.036 | 1.26 ± 0.029 | 1.45 ± 0.089 |
| SMIKPGEKIKKIKLKLENGEEVEATLVKNEDGSLVLFIKVDGEVYVFTFNPDGEIKIEKVSKEEAEKLLKSA [r9_1144_TrROS_Hall] | 2.05 ± 0.097 | 3.79 ± 0.046 | 3.4 ± 0.15 |
| SMTIRIVDEKTKEVREIKIENLTVEKEKDGRYRMTREQVLEALKKLLPEDVKIVEVEENEDGELTIVVEPSA [r9_997_TrROS_Hall] | 2.41 ± 0.051 | 2.906 ± 0.025 | 2.77 ± 0.083 |
| SAGGSAMVSLEEAKEATLREVKAALGFSPDATPEELRARGVPVRVPITVRDEKGNVIAELELELPGSAGGSA [r15_391_JUSTAS] | -0.118 ± 0.04 | 0.571 ± 0.046 | 0.37 ± 0.039 |
